Reference: the supplement of paper PMC9112550, “Optimization of the antimicrobial peptide Bac7 by deep mutational scanning” (BMC Biology, 2022)

tested on: Escherichia coli TOP10; assay: shrunken log2 fold change of peptide-encoding DNA abundance (4.5 h post-induction vs induction); higher = less antimicrobial activity (less host growth inhibition); details: time post-induction: 4.5 h; library: site-saturation at positions 5, 18, 19, 20
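Also: peptides expressed intracellularly from a pBAD plasmid library in pooled LB shake-flask culture, induced with 0.3% L-arabinose, DNA abundance read by NGS, three biological replicates, DESeq2 with apeglm shrinkage.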

Row | Sequence | shrunken log2 fold change
1 | RRIRSRPPRLPRPRPRPRGRPRP | 0.375
2 | RRIRDRPPRLPRPRPRPRFIPRP | -0.233
3 | RRIRLRPPRLPRPRPRPEDYPRP | -0.0202
4 | RRIRCRPPRLPRPRPRPCPKPRP | -0.0654
5 | RRIRGRPPRLPRPRPRPPDIPRP | 0.514
6 | RRIRGRPPRLPRPRPRPMEAPRP | 1.27
7 | RRIRFRPPRLPRPRPRPPMRPRP | 1.05
8 | RRIRTRPPRLPRPRPRPGPDPRP | -0.228
9 | RRIRIRPPRLPRPRPRPHYCPRP | -0.0772
10 | RRIRRRPPRLPRPRPRPPMEPRP | -0.0681
11 | RRIRERPPRLPRPRPRPYVHPRP | -0.00146
12 | RRIRYRPPRLPRPRPRPCYAPRP | -0.00203
13 | RRIRERPPRLPRPRPRPLRPPRP | 0.889
14 | RRIRQRPPRLPRPRPRPQQCPRP | -0.132
15 | RRIRWRPPRLPRPRPRPYAAPRP | 0.445
16 | RRIRSRPPRLPRPRPRPSMCPRP | -0.146
17 | RRIRLRPPRLPRPRPRPSEEPRP | -0.0637
18 | RRIRVRPPRLPRPRPRPDRSPRP | -0.039
19 | RRIRIRPPRLPRPRPRPEYWPRP | -0.0686
20 | RRIRARPPRLPRPRPRPHEMPRP | 0.588
21 | RRIRLRPPRLPRPRPRPHRRPRP | 0.0082
22 | RRIRCRPPRLPRPRPRPYYPPRP | -1.27
23 | RRIRQRPPRLPRPRPRPLMIPRP | -0.0458
24 | RRIRVRPPRLPRPRPRPKQMPRP | 0.114
25 | RRIRQRPPRLPRPRPRPNHEPRP | -0.102

Row | Sequence | shrunken log2 fold change
26 | RRIRWRPPRLPRPRPRPPFPPRP | 0.37
27 | RRIRFRPPRLPRPRPRPGNYPRP | -0.401
28 | RRIRCRPPRLPRPRPRPDLIPRP | -0.109
29 | RRIRPRPPRLPRPRPRPNKMPRP | -0.17
30 | RRIRKRPPRLPRPRPRPEVRPRP | 1.86
31 | RRIRLRPPRLPRPRPRPFECPRP | -0.345
32 | RRIRYRPPRLPRPRPRPKVAPRP | -0.013
33 | RRIRMRPPRLPRPRPRPAHQPRP | 0.397
34 | RRIRIRPPRLPRPRPRPIKPPRP | -0.254
35 | RRIRIRPPRLPRPRPRPQCQPRP | -0.153
36 | RRIRPRPPRLPRPRPRPYSFPRP | -0.796
37 | RRIRARPPRLPRPRPRPNTMPRP | -0.223
38 | RRIRTRPPRLPRPRPRPHRYPRP | -0.604
39 | RRIRGRPPRLPRPRPRPMNVPRP | -0.176
40 | RRIRWRPPRLPRPRPRPKEWPRP | 0.00353
41 | RRIRMRPPRLPRPRPRPKKYPRP | 1.26
42 | RRIRYRPPRLPRPRPRPWCHPRP | -0.191
43 | RRIRVRPPRLPRPRPRPYAFPRP | -0.0621
44 | RRIRTRPPRLPRPRPRPNTMPRP | -0.675
45 | RRIRCRPPRLPRPRPRPITGPRP | -0.213
46 | RRIRIRPPRLPRPRPRPLHFPRP | -0.511
47 | RRIRVRPPRLPRPRPRPERPPRP | 0.0183
48 | RRIRPRPPRLPRPRPRPNRFPRP | -0.0502
49 | RRIRNRPPRLPRPRPRPDHGPRP | -0.319
50 | RRIRYRPPRLPRPRPRPKFDPRP | -0.138

Row | Sequence | shrunken log2 fold change
51 | RRIRVRPPRLPRPRPRPNRSPRP | -0.0169
52 | RRIRNRPPRLPRPRPRPVMNPRP | -0.075
53 | RRIRIRPPRLPRPRPRPCGKPRP | -0.025
54 | RRIRLRPPRLPRPRPRPNSDPRP | -0.2
55 | RRIRHRPPRLPRPRPRPVQSPRP | 0.0377
56 | RRIRSRPPRLPRPRPRPIFHPRP | -0.29
57 | RRIRLRPPRLPRPRPRPIYCPRP | -0.527
58 | RRIRMRPPRLPRPRPRPLVTPRP | -0.107
59 | RRIRSRPPRLPRPRPRPFGNPRP | -0.00151
60 | RRIRERPPRLPRPRPRPIKTPRP | -0.139
61 | RRIRIRPPRLPRPRPRPAEMPRP | 0.0228
62 | RRIRGRPPRLPRPRPRPEAMPRP | 0.59
63 | RRIRTRPPRLPRPRPRPYGLPRP | 4.72
64 | RRIRYRPPRLPRPRPRPHAFPRP | 0.0566
65 | RRIRFRPPRLPRPRPRPHFYPRP | -0.38
66 | RRIRFRPPRLPRPRPRPYIVPRP | -0.97
67 | RRIRTRPPRLPRPRPRPRCPPRP | 0.0716
68 | RRIRDRPPRLPRPRPRPSFRPRP | -0.198
69 | RRIRFRPPRLPRPRPRPNYNPRP | -1.12
70 | RRIRVRPPRLPRPRPRPLPSPRP | 0.244
71 | RRIRMRPPRLPRPRPRPQMFPRP | -0.0181
72 | RRIRGRPPRLPRPRPRPNACPRP | 0.212
73 | RRIRHRPPRLPRPRPRPYWYPRP | -1.25
74 | RRIRQRPPRLPRPRPRPVAGPRP | 0.0467
75 | RRIRFRPPRLPRPRPRPVTFPRP | -0.213

Row | Sequence | shrunken log2 fold change
76 | RRIRTRPPRLPRPRPRPPVMPRP | -0.113
77 | RRIRFRPPRLPRPRPRPNWNPRP | -0.42
78 | RRIRFRPPRLPRPRPRPCWRPRP | -0.199
79 | RRIRFRPPRLPRPRPRPQHHPRP | -0.659
80 | RRIRMRPPRLPRPRPRPHCAPRP | 1.76
81 | RRIRKRPPRLPRPRPRPSGKPRP | -0.424
82 | RRIRTRPPRLPRPRPRPIHTPRP | -0.371
83 | RRIRKRPPRLPRPRPRPVMVPRP | 0.315
84 | RRIRYRPPRLPRPRPRPWTLPRP | -0.0151
85 | RRIRKRPPRLPRPRPRPKRVPRP | 0.717
86 | RRIRCRPPRLPRPRPRPGRMPRP | 0.141
87 | RRIRQRPPRLPRPRPRPSWMPRP | -0.0569
88 | RRIRQRPPRLPRPRPRPSWDPRP | -0.16
89 | RRIRIRPPRLPRPRPRPTHIPRP | -0.495
90 | RRIRRRPPRLPRPRPRPKFTPRP | -0.176
91 | RRIRWRPPRLPRPRPRPRPHPRP | 0.408
92 | RRIRMRPPRLPRPRPRPKTKPRP | 0.557
93 | RRIRSRPPRLPRPRPRPKHWPRP | 0.311
94 | RRIRRRPPRLPRPRPRPFKIPRP | -0.00337
95 | RRIRHRPPRLPRPRPRPQTMPRP | 3.11
96 | RRIRTRPPRLPRPRPRPQEHPRP | -0.0662
97 | RRIRGRPPRLPRPRPRPQMEPRP | 0.473
98 | RRIRVRPPRLPRPRPRPAKWPRP | 0.153
99 | RRIRTRPPRLPRPRPRPMMFPRP | -0.0404
100 | RRIRYRPPRLPRPRPRPTIIPRP | -0.669

Row | Sequence | shrunken log2 fold change
101 | RRIRVRPPRLPRPRPRPETEPRP | 0.276
102 | RRIRCRPPRLPRPRPRPDLHPRP | -0.252
103 | RRIRMRPPRLPRPRPRPIQSPRP | 0.00351
104 | RRIRPRPPRLPRPRPRPGNTPRP | -0.241
105 | RRIRCRPPRLPRPRPRPTLLPRP | 0.0984
106 | RRIRQRPPRLPRPRPRPGLHPRP | -0.111
107 | RRIRTRPPRLPRPRPRPHQFPRP | -0.738
108 | RRIRPRPPRLPRPRPRPNLNPRP | -0.369
109 | RRIRDRPPRLPRPRPRPHTFPRP | -0.111
110 | RRIRNRPPRLPRPRPRPTGPPRP | 0.126
111 | RRIRKRPPRLPRPRPRPGWFPRP | 0.139
112 | RRIRTRPPRLPRPRPRPYYFPRP | -0.783
113 | RRIRKRPPRLPRPRPRPLCWPRP | 0.52
114 | RRIRFRPPRLPRPRPRPKVNPRP | -0.266
115 | RRIRSRPPRLPRPRPRPVRDPRP | 0.369
116 | RRIRTRPPRLPRPRPRPHLDPRP | -0.175
117 | RRIRCRPPRLPRPRPRPMHEPRP | -0.00208
118 | RRIRMRPPRLPRPRPRPPWPPRP | 1.1
119 | RRIRMRPPRLPRPRPRPEVSPRP | 0.221
120 | RRIRSRPPRLPRPRPRPVGVPRP | 0.0685
121 | RRIRSRPPRLPRPRPRPTVQPRP | -0.204
122 | RRIRERPPRLPRPRPRPRCKPRP | -0.0657
123 | RRIRLRPPRLPRPRPRPLILPRP | -0.429
124 | RRIRRRPPRLPRPRPRPRDGPRP | 0.731
125 | RRIRARPPRLPRPRPRPNVEPRP | 0.327

Row | Sequence | shrunken log2 fold change
126 | RRIRLRPPRLPRPRPRPKRQPRP | 0.045
127 | RRIRKRPPRLPRPRPRPGPFPRP | 0.56
128 | RRIRPRPPRLPRPRPRPTCPPRP | 0.0562
129 | RRIRQRPPRLPRPRPRPDNMPRP | -0.163
130 | RRIRTRPPRLPRPRPRPPEWPRP | 0.442
131 | RRIRIRPPRLPRPRPRPNRGPRP | -0.203
132 | RRIRSRPPRLPRPRPRPYVVPRP | -0.314
133 | RRIRERPPRLPRPRPRPDAYPRP | -0.532
134 | RRIRCRPPRLPRPRPRPTMEPRP | -0.088
135 | RRIRGRPPRLPRPRPRPGLSPRP | 1.12
136 | RRIRWRPPRLPRPRPRPSLWPRP | 0.575
137 | RRIRFRPPRLPRPRPRPDFSPRP | -0.259
138 | RRIRCRPPRLPRPRPRPNQSPRP | 2.47
139 | RRIRRRPPRLPRPRPRPMVLPRP | -0.0254
140 | RRIRSRPPRLPRPRPRPVGHPRP | -0.376
141 | RRIRHRPPRLPRPRPRPKFFPRP | -0.0649
142 | RRIRHRPPRLPRPRPRPTQQPRP | 0.0495
143 | RRIRNRPPRLPRPRPRPANVPRP | 0.0585
144 | RRIRPRPPRLPRPRPRPGIRPRP | 0.105
145 | RRIRDRPPRLPRPRPRPKPFPRP | 0.013
146 | RRIRARPPRLPRPRPRPVPTPRP | 0.57
147 | RRIRKRPPRLPRPRPRPSCKPRP | 0.034
148 | RRIRCRPPRLPRPRPRPCVCPRP | -0.128
149 | RRIRLRPPRLPRPRPRPNRLPRP | -0.0858
150 | RRIRWRPPRLPRPRPRPDSFPRP | 0.00192
